# Assay results: the DeepSol protein solubility set
# Assay: soluble on expression in E. coli; label from the status in PepcDB or PDB records
row,Sequence,soluble on expression in E. coli
1,MAHHHHHHMSNAEEETVKKKKKYRKDKPWDNENIDHWKVEKFTQEDNKHHFLEESSFKVLFPKYREKYLQQFSSDIKNVLNKHFIKFEIDLIEGYMCVKTTKKTFDPYIIIKSRDMISLLSRSVPFVHAKRVLEDETYCDIIKISGYVRNKNKFIKRRQRLLGSNATTLKALEILTNCYICIHGKTVSVIGHFKSLKVVRRIIIDCMKNIHPVYHIKELIAKRELEKNEEFKNENWEKFLPNFKKRNVQRKKIKEKLDKKKKKNKSVFPPDQLPRKIDIQMETGEYFLNNQKNKKKDKTQDKQQKGND,not soluble
2,MKTIEEIKSTPKTVMKKPELLAPAGNLEKLKIAVHYGADAVFLGGQEYGLRSNADNFTMEEIAEGVEFANRYGAKIYVTTNIIAHDENIEGLESYLRNLEKTGATGIIVADPLIIETCKEVAPKLEIHLSTQQSLSNYKAVEYWKEEGLDRVVLARETGAMEMREMKEKVDIEIEAFIHGAMCIAYSGRCTLSNHMTARDSNRGGCCQSCRWDYELLEVDDNGELDVFYNQGEVTPFAMSPKDLKLIESIPQMMDIGVDSLKIEGRMKSIHYIATVVSVYRKVIDAYAADPDNFKINPEWLIELDKCANRDTAPAFFEGTPGYEEQMFGQQQSKKSSFDFCGLVLDYNEDTKIATIQQRNNFKPGQEIEFFGPEIETFTQVVEAIYDEEGNSLDAARHPLQIVQIKVDRPIYPNNMMRKEIG,not soluble
3,RPVWYGDPISTSTSHRDLMLVVDLSYSMSQEDMQSGQQMVDRLTAVKQVLSEFIAKREGDRIGLILFADHAYLQTPLTLDRQTVANQLNQTVLKLIGTQTAIGEGIGLATKTFIDSDAPQRVMILLSDGSNTAGVLDPLEAANIAKQYNTTIYTVGVGAGEMVVKDFLFSRKVNTAQDLDEKTLQTIATTTGGHYFRARNQQDLQNIYDTINQLEPISQSN,not soluble
4,MEKPHVVSLIGGFGYREPIFRKVLTTAMLDPGINYTLISGPSLDPSKLGGVPKNVRILNFVEDTYPYIKSSDAVIAPGGHSTIMEALSFGVPILSFPDEGHSEQESNAAVVEEEGYGRMLSYSTPPEVILECIREVIEDEAYRNKVERLQRLSGELEHHHHHH,not soluble
5,MASIMYTPKDIFEQEFKSSMRGYDKKEVDEFLDDIIKDYETYISTIEELRQENTRLKEEVKQAKKRQEAAQTTVSPAASVSSSRVATTATNFDILKRISRLEKEVFGKQITE,not soluble
6,TKLSPELLVKLGSEGVLAGVKDSSGDDVSFRRLVMLNKKAGSPLTLLTGHEAVVDGAFIAGADGCVPGLGNVDPAGYVRMWKAAEAGDWATVQKEQDRLAALFEIVFQPIGKVGPAAGVGSFKTALE,not soluble
7,SLKIYRSTLLHTPASPFAVPDALQTFSDGALAVGDTGTIAHLGTFTEVLAEVRAACPDAEVHDLRGGVLLPGFIDTHVHYPQVRVLGGLGMALLEWLDRNTLPEEARLADAAYARTIAGEFLHGLASHGTTTALVFGSHFAGAMDEFFAEAAARGLRVVAGQVVSDRLLRPELHTTPERAYAEGKALIERWHGQGRSLYAVTPRFSLSASEGILDACAALLTEFPDVRFTSHINENNQEIEVVRGLFPGARDYLDTYERAGLVTPRSVFAHNVHPNERELGVLAAQRCSVAHCPCSNSALGSGLFPLRRHLAAGVHVALGTDVGGGTGFSLLKEGLQAYFMQQLLGEEGAALSPAHLLYLATLAGAQALGLDGQVGDFTPGKQFDAVWLRPRAGSTLATVLAHAESEERTLAALFALGTGDDVERVWVGGGVVFAREAEA,soluble
8,MSPTLSILIPVYKRDCRRLLEELYKQAEELSVGYEIILGDDCSGEPYTSQYIAYEQEGLCRLVSAEENMGAGRLRNRLAEEAQGEQLLILDSDTLPASPDFIERYLRHASGTTVVCGGFVYPPKSTNPLRQRYGAEVESRSAEERARKPHSGFISMAFMIPRKQMLATGFPPNMGMGYEDILFGERLRQAGIPILHIDNPVEHYHCDTAEGFLATTRSYLDNLYCHREELAELVSLLRAYNLLKRLHLMRMVAALWPLIRSSLEKQLTGAKPSLLLFSLYKLLYVASLSLVCAEKS,not soluble
9,MIGKKILGERYVTVSEAAEIMYNRAQIGELSYEQGCALDYLQKFAKLDKEEAKKLVEELISLGIDEKTAVKIADILPEDLDDLRAIYYKRELPENAEEILEIVRKYI,soluble
10,MASLRDIKAKINSTKKTSQITKAMEMVSASKLNRAEQNAKSFVPYMEKIQEVVASIAQGSKGINHPMLNARPVKRTGYIVITSDRGLAGGYNSNVLRTVSNVIRERHNMDSNQYSIIVLGRLGRDYLKRRGFNIIDEVVGLSDHPSFTDIKDLASRAIAMFADGAYDELYIYYNHYVSKISQEVTENKILPLTDVASDKPTTAYEFEPSEEEILKVLLPQYAESLVYGALLDGKASEHAARMTAMKSATDNAMEVIDSLTLSFNRARQAAITQEITEIVGGAAALE,not soluble
11,TLKEMKYKRNQEEIETYYEYTLKIEAINNEMRKFRHDYVNILTTLSEYIREDDMIGLRAYFNKNIVPMKDNLQMNAIKLNGIENLKVREIKGLITAKILRAQEMNIPISIEIPDEVSSINLNMIDLSRSIGIILDNAIEASTEIDDPIIRVAFIESENSVTFIVMNKCADDIPRIHELFQESFSTKGEGRGLGLSTLKEIADNADNVLLDTIIENGFFIQKVEIINN,not soluble
12,MYRDRVRLPSLLDKVMSAAEAADLIQDGMTVGMSGFTRAGEAKAVPQALAMRAKERPLRISLMTGASLGNDLDKQLTEAGVLARRMPFQVDSTLRKAINAGEVMFIDQHLSETVEQLRNHQLKLPDIAVIEAAAITEQGHIVPTTSVGNSASFAIFAKQVIVEINLAHSTNLEGLHDIYIPTYRPTRTPIPLTRVDDRIGSTAIPIPPEKIVAIVINDQPDSPSTVLPPDGETQAIANHLIDFFKREVDAGRMSNSLGPLQAGIGSIANAVMCGLIESPFENLTMYSEVLQDSTFDLIDAGKLRFASGSSITLSPRRNADVFGNLERYKDKLVLRPQEISNHPEVVRRLGIIGINTALEFDIYGNVNSTHVGGTKMMNGIGGSGDFARNAHLAIFVTKSIAKGGNISSVVPMVSHVDHTEHDVDILVTEQGLADLRGLAPRERARVIIENCVHPSYQAPLLDYFEAACAKGGHTPHLLREALAWHLNLEERGHMLAG,soluble
13,MRMNSQWGFKMKILIMGFEYLPVKVGGLAEALTSIAEALASLGHEVLVFTPSHGRFQGSEIGIIKAFGGKVAIKVHLEENGNLRIYRIGGGLLDHQDVYGPGWEGLIRKTVIFGKASVLLLNELLKSEDLPDVLHFHDWHTVFAGALIKKYFRIPAVFTIHRLNKSKIPAFYFHEAGLPELAPYPDLDPEHTGGYIADIVTTVSRGYLLDEWDFFRNFNGKVTYVFNGIDCSFWNENYLKGSRKERRSSILAKFGMSDGITFMFIGRFDRRQKGVDTLLRAIELLSERPEFKEMRFIIIGMGDPELENWARELEKRYDNVRVLTEMLSREFVRELYGSVDFVIIPSYFEPFGLVSLEAMCLGAIPIASSVGGLRDVIVSIDEDHVDGTGLLVKPGDPWDLANAILRMHSIAMDNEFVEKLRDNCKKRAKSFSWENSAKRYLRAYKGNIDRIFDFAMLEHHHHHH,not soluble
14,MLKVEMLSTGDEVLYGQIVDTNAAWLADFFFHQGLPLSRRNTVGDNLDDLVTILRERSQHADVLIVNGGLGPTSDDLSALAAATAKGEGLVLHEAWLKEMERYFHERGRVMAPSNRKQAELPASAEFINNPVGTACGFAVQLNRCLMFFTPGVPSEFKVMVEHEILPRLRERFSLPQPPVCLRLTTFGRSESDLAQSLDTLQLPPGVTMGYRSSMPIIELKLTGPASEQQAMEKLWLDVKRVAGQSVIFEGTEGLPAQISRELQNRQFSLTLSEQFTGGLLALQLSRAGAPLLACEVIPSQEETLAQTAHWITERRANHFAGLALAVSGFENEHLNFALATPDGTFALRVRFSTTRYSLAIRQEVCAMMALNMLRRWLNGQDIASEHGWIEVVESMTLSV,not soluble
15,MKKVSIIIPFKGQTEAELMLPLSSIYNQIGVDLSQLDIHLVNDGGKTIDLSKFDVLADRLEIHYHEIPNGGPGVARQYGIDNSISEYIMFIDADDVLYYVGALWPFYNASNQGHQMIRASYWEQIAGNPYTYTVHGNGDRKAAYGKWYKRSYIEMLGLRFMPDLPIYEDTYFVGLACELATDTCFLEEKVYMWLANPNSITRTVENKFNYQAHIYARENRYWFEMIRKWKPECLVTDFENYLTNMYLKSQKYPPVDEKAWWEEQHKLITSVSDIFSGWTQELQKQVELEHHHHHH,not soluble
16,REGVFRAERQRKAGELIISREPLTGLDDAARSQALLALVRRKGLELLPWTPELRQWQARVALLRSLDIDKSATSEWPDLSDAQLLATLENWLMPYLGKVT,not soluble
17,MANTGCLSPGAFLSKVPEFFQTANEKHITVRLTAKRLIEHDPVEGNLEFDSTNHPDYDVSKKASEISVSSRSDREYPLLIRMSYGSHDKKTKCSTVVKASELDQFWQEYSSVFKGGMQNLIKKKKKKSKNGTISKTGKKNKVAKKN,not soluble
18,MMNQDIEKVLISEEQIQEKVLELGAIIAEDYKNTVPLAIGVLKGAMPFMADLLKRTDTYLEMDFMAVSSYGHSTVSTGEVKILKDLDTSVEGRDILIVEDIIDSGLTLSYLVDLFKYRKAKSVKIVTLLDKPTGRKVDLKADYVGFTVPHEFVVGYGLDYKEQYRNLPYVGVLKPSVYSN,not soluble
19,MAHHHHHHMMKNTVRQFVKEITYLEVWEHFRRFGDAAGPDSVKCRLLCSDAVATQLNERIRMRYLLEQFLAQSSTTTSTGVAGEPRRWWEGDLTRCVDSDRRVLAETLLEDGWMLMQLNNCVSDREWLITTMTFQREKSTT,not soluble
20,MWKWETENDAKGVVVIAHNILEHTGRYAYVITMLRRNGYHVIMGDLPGQGQTSRAQKGQIDDFNTYHENILEWIKIANEYKIPTFVLGVGLGGLIILNLLEKTELPIEGILLFSPMLELKRDYKGRKNKLISNVGKISKDTRFKVGITPQDLTRNDEIIEETANDGLMLKKVTYSWYNLINEKMKETMDHIRDIKPISALIMYGTNDKILETQSINEMKDKLKSKEMYFKVWDGLYHEIHNEPERDLVMRYVLSFLNNSVNTMGFIVNEEEIEDI,not soluble
21,MGSDKIHHHHHHLYFLDNQLAQQIVDRTMAIIGHNINVMNSQGVILGSGEPHRIGSTHEGALLAISQNRTVELNSASAASLQGVKPGINLPLHYQGEIIGVIGITGEPEHLKAFGELLKMTAEMIVEQANSLDVAQWRARQQEEFILQLIKPEGRDLNHLKIWAQRLDIDLEMPRVAAVLRISDDAGDELANSQLKTVLHLLETPSRGNLIAMTSMTELVILKPAFLDGKAWSAEAESLRIDRLLKRLPSELNARLKISLGHYFPATMDINRSYQTALETLNFGQQLHPEQSKYLYEDHALLVMLSGLKHDWRGEQLLRPFQRLIDRDKNALLRKTLASYLGHFGDQQACAKALFIHRNTLRYRLDKIAQITKVDIQKLDGLLQLYLGQVLLSRGQDQG,not soluble
22,MKPAYFISDLHLSEKQPELTALLLRFLRSSAAGQARAIYILGDLFDFWVGDDEVSELNTSVAREIRKLSDKGVAVFFVRGNRDFLIGQDFCRQAGMTLLPDYSVLDLFGCKTLICHGDTLCTDDRAYQRFRKIVHRKRLQKLFLMLPLKWRTRLATKIRRVSKMEKQVKPADIMDVNAAFTARQVRAFGAERLIHGHTHREHIHHENGFTRIVLGDWHNDYASILRVDGDGAVFVPLEKY,not soluble
